# Laboratory results reported in publication doi:10.1101/2023.02.23.529735 (bioRxiv, 2023).
# B1: H-NS86-VC (H-NS amino acids 1-86 fused at the C-terminus to the mVenus-mCherry VC domain) (domain or fragment, E. coli, UniProt P0ACF8 1-86, looked up)
# chain: MVSEALKILNNIRTLRAQARECTLETLEEMLEKLEVVVNERREEESAAAAEVEERTRKLQQYREMLIADGIDPNELLNSLAAVKSGT
# B2: H-NS-VC (Histone-like Nucleoid Structuring protein H-NS fused at its C-terminus to the mVenus-mCherry VC domain) (natural protein, E. coli, UniProt P0ACF8 1-137, looked up)
# chain: MGSEALKILNNIRTLRAQARECTLETLEEMLEKLEVVVNERREEESAAAAEVEERTRKLQQYREMLIADGIDPNELLNSLAAVKSGTKAKRAQRPAKYSYVDENGETKTWTGQGRTPAVIKKAMDEQGKSLDDFLIKQ
# B3: H-NS64-VC (H-NS amino acids 1-64 fused at the C-terminus to the mVenus-mCherry VC domain) (domain or fragment, E. coli, UniProt P0ACF8 1-64, looked up)
# chain: MVSEALKILNNIRTLRAQARECTLETLEEMLEKLEVVVNERREEESAAAAEVEERTRKLQQYREM
# How the values were obtained:
# [1] = molecular target: the molecule itself; assay: FRET or BRET
# [2] = molecular target: the molecule itself; assay: FRET or BRET; remark: listed apart in the source
Protein,"FRET/Donor ratio, exponentially growing cells [1]","FRET ratio (acceptor/donor) in foci, no additive [2]","FRET ratio (acceptor/donor) in the solution outside the foci, no additive [2]","FRET/Donor ratio, after a 6 min heat shock at 42 °C [1]","FRET/Donor ratio, spheroplasts returned from 880 mOsm to 220 mOsm [1]"
B1,0.132,0.073,0.068,–,–
B2,0.105,0.07,0.082,0.162,0.181
B3,0.126,–,–,–,–
